The supplement of paper PMC9732359
± gives the uncertainty stated by the source.

experiment: protein stability index of a GFP-peptide fusion (yeast GPS) (PSI 1-4); higher = more stable; sorted into four equal gates, so the index is relative within each strain; details: doa10∆
Method in brief: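 Mid-log yeast cultures in leucine-free medium, carrying a pooled plasmid library, were sorted into four equal gates by their GFP/Cherry fluorescence ratio. Each plasmid expressed Cherry along with GFP fused upstream of a tiled 17-residue yeast protein peptide. Plasmids recovered from each gate were PCR-amplified and Illumina-sequenced, with reads assigned to strains by barcodes. The protein stability index was obtained by summing each gate's read frequency weighted by its gate number.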

AGVLNGTLEYGTCFGGS [RET1] and AGVQGSKVSKQQAKGAF [RPL24B] are within error of each other in protein stability index: 2.97 ± 0.051 for the first, 3.08 ± 0.15 for the second.

Going from AHCILGIGGDHAKFSPV [RPC40] to AHKLKKSLDSIPMSKTI [FAS2], the protein stability index rises from 2.59 ± 0.085 to 3 ± 0.083.

First: AHRGIRHFWGLRVRGQH [RPS18A]
Second: AHRNGIKKPKTYKYPSL [RPL29]
The protein stability index of the first is lower: 2.82 ± 0.1 for the first, 3.42 ± 0.11 for the second.

First: AHTPMLQMYSKIRRHPN [FAS1]
Second: AIGCIERSDLLPYLSDT [YJR042W/NUP85]
The protein stability index of the first is lower: 2.81 ± 0.051 for the first, 2.96 ± 0.095 for the second.

First: AIKKKEKLLRHVDSLIE [SRB7]
Second: AIVVGWRAIIKAIFPNT [FAS1]
The protein stability index of the first is higher: 3.15 ± 0.094 for the first, 2.44 ± 0.1 for the second.

Compared with AKICALLFFNFSHSLTT [NUT1], AKKLIQSLPPTLKVNRL [RPL38] is higher in protein stability index: 1.43 ± 0.045 for the first, 2.15 ± 0.039 for the second.

First: AKKLSSFDFGNENEDED [ARP9]
Second: AKKSTTISKESTPDQRK [ESC2]
The protein stability index of the first is higher: 3.24 ± 0.11 for the first, 2.59 ± 0.1 for the second.

Going from AKLLQENDTTLVKTKEL [FAS1] to AKLSERSNGSVASLSKR [YJL039C/NUP192], the protein stability index falls from 2.66 ± 0.14 to 2.33 ± 0.052.

Going from AKNKSTRINGLNSNNSI [REC8] to AKPFQVTKEYFQDVYDL [FAS1], the protein stability index falls from 3.43 ± 0.14 to 2.96 ± 0.12.

ALAQQKLLTPQDMEAAK [GAL11] and ALELDDTVVSRVNEMVQ [ECM29] are within error of each other in protein stability index: 3.2 ± 0.12 for the first, 3.16 ± 0.17 for the second.

First: ALERNWPIVNSKVYFNN [RPN12]
Second: ALFVFYSPNTLGHPDNY [COB]
The protein stability index of the first is higher: 1.93 ± 0.08 for the first, 1.39 ± 0.09 for the second.

Compared with ALGEFADWDPESMAYTA [YML031W/NDC1], ALNDVYLDADVAKLANW [YML031W/NDC1] is lower in protein stability index: 3.52 ± 0.14 for the first, 2.85 ± 0.2 for the second.

Going from ALNNAIPGGPKFEPLYP [PRP8] to ALNSMCASIPIAIIKDT [RRP46], the protein stability index falls from 3.1 ± 0.069 to 1.48 ± 0.12.

Compared with ALRDVKNNNNANNNGSN [GAL11], ALSGLYYKNFHNSVKRY [SNM1] is lower in protein stability index: 3.33 ± 0.095 for the first, 1.59 ± 0.27 for the second.

Going from ALTQMDQDKVNFASGDN [RPB3] to ALYVLRERIRKGLQIYQ [PRP8], the protein stability index falls from 3.33 ± 0.14 to 2.54 ± 0.24.

AMSTVTLGVVGKSEKLS [SKI6] and AMTIYWDDHTKKPLSMA [CDC53] are within error of each other in protein stability index: 2.81 ± 0.079 for the first, 2.87 ± 0.077 for the second.

First: ANDEEAYIKLLDQTKDT [SNF2]
Second: ANDFQLTIVTCKQFPKL [SRB8]
The protein stability index of the first is higher: 2.98 ± 0.088 for the first, 1.83 ± 0.047 for the second.

First: ANFGEILEDFRVIKDFK [YMR153W/NUP53]
Second: ANGTVVSFIKNGEEIVG [MTR3]
The protein stability index of the first is higher: 3.07 ± 0.14 for the first, 1.34 ± 0.07 for the second.

First: ANICLTFLESINGINWR [SIN4]
Second: ANKEKRAIILERNAAYQ [RPL7A]
The protein stability index of the first is higher: 2.54 ± 0.043 for the first, 1.2 ± 0.072 for the second.

Compared with ANPAGASQPEPTTNEPA [YJL041W/NSP1], ANRVTDKLTRVHDKIWC [PRE3] is lower in protein stability index: 2.82 ± 0.12 for the first, 2 ± 0.12 for the second.

Going from ANSSTIRVTNSFALPFE [RPN8] to ANTGGGLFGANSNSNSG [YGL172W/NUP49], the protein stability index falls from 2.46 ± 0.065 to 2.11 ± 0.11.

Going from APIGKHYVVLDTNVVLQ [DIS3] to APLFKKNSSRPMPPIRG [SMD3], the protein stability index falls from 2.93 ± 0.13 to 2.42 ± 0.059.

Compared with APLKHGVGILYKGMASN [BRR2], APLVLLSALDHYERTQT [RPN8] is higher in protein stability index: 1.93 ± 0.078 for the first, 2.45 ± 0.051 for the second.

Going from APNTLTNILISPLNTTT [YML103C/NUP188] to APRQEISEEETTVKPLF [YAR002W/NUP60], the protein stability index rises from 2.23 ± 0.062 to 3.22 ± 0.11.

First: APTPAAPGASVPATAAP [SWI1]
Second: AQFYLGKRIAYVYRASK [RPL33A]
The protein stability index of the first is higher: 2.93 ± 0.068 for the first, 1.81 ± 0.068 for the second.

Compared with AQHESFLRQKICLMTLI [RPN9], AQKCGWTIPHKKWNDLK [SIR2] is higher in protein stability index: 1.26 ± 0.072 for the first, 3.25 ± 0.057 for the second.

Going from AQLTLKRCKHFELGGEK [RPL42A] to AQQLVGVYKRDNRTKST [SMC4], the protein stability index rises from 1.93 ± 0.12 to 3.11 ± 0.2.

Going from AQYFYSGAYSYPDFRHY [DIS3] to ARDEILPLRLQFNEFIQ [PGD1], the protein stability index rises from 1.43 ± 0.056 to 2.55 ± 0.083.

Going from ARGLTATGKKSRGINKG [RPL15A] to ARGMTSKPAGFMKKLRA [RPS15], the protein stability index falls from 3.57 ± 0.19 to 3.15 ± 0.16.

ARIIRSELLARDIFQED [RGR1] and ARLAILKERAKNISSQL [YGR119C/NUP57] are within error of each other in protein stability index: 2.26 ± 0.11 for the first, 2.24 ± 0.079 for the second.

Compared with ARQFGYVILTTSAGIMD [RPS22A], ARVKAFDRHCNMVLENV [SMD2] is higher in protein stability index: 1.37 ± 0.048 for the first, 1.53 ± 0.091 for the second.

Going from ARVLFDDMVEYEDGTPA [CYT1] to ASFGKNLQIRQLFNWCL [DSN1], the protein stability index falls from 3.47 ± 0.17 to 1.2 ± 0.064.

First: ASFNDTFVHVTDLSGKE [RPS14A]
Second: ASILLALTQMDQDKVNF [RPB3]
The protein stability index of the first is lower: 2.17 ± 0.097 for the first, 3.18 ± 0.11 for the second.

ASISLPNHIPSVNPSNK [SWP82] and ASKGIDRLSLQDRQQLL [ECM29] are within error of each other in protein stability index: 2.99 ± 0.1 for the first, 3.08 ± 0.083 for the second.

First: ASKKSGGDVVKFQKLLQ [SMC4]
Second: ASKTNLRLTDVTNSLSN [GAL11]
The protein stability index of the first is higher: 3.42 ± 0.15 for the first, 3.15 ± 0.072 for the second.

First: ASLDGTIRLWECGTGTT [RPN14]
Second: ASLGIGLAAMGSANIEV [RPN2]
The protein stability index of the first is higher: 2.8 ± 0.093 for the first, 1.65 ± 0.088 for the second.

First: ASSAAAGAAGAAAGGDA [RPP2B]
Second: ASSGPRYIVGVRNSVDR [RPT4]
The protein stability index of the first is higher: 2.87 ± 0.11 for the first, 1.29 ± 0.12 for the second.

ASTPSIRPDGRLPHQFR [RRP42] and ASTVAKTAPIQESFVPN [YOR098C/NUP1] are within error of each other in protein stability index: 2.9 ± 0.14 for the first, 2.97 ± 0.16 for the second.

First: ASVTKEILGTAQSVGCR [RPL12A]
Second: ATADTTHLHEALDIVCS [NUT1]
The protein stability index of the first is lower: 1.35 ± 0.087 for the first, 2.12 ± 0.056 for the second.

ATNANATTDQEGDIHLE [PRE10] and ATNRVDVLDPALLRSGR [RPT5] are within error of each other in protein stability index: 3.35 ± 0.23 for the first, 3.13 ± 0.12 for the second.

Going from ATPFRQWFEAHYGQTLG [RPS8A] to ATPSAKEASQEDDNNNV [YLR335W/NUP2], the protein stability index rises from 2.436 ± 0.022 to 2.57 ± 0.058.

ATQKESLEMVPKDTSAA [RGR1] and ATTGGLFGSKPQGSTTN [YGR119C/NUP57] are within error of each other in protein stability index: 3.25 ± 0.087 for the first, 3.34 ± 0.1 for the second.

First: ATVDEFPLCVHLVSNEL [RPL10]
Second: ATYMDNDIAGQPQALQK [RPO21]
The protein stability index of the first is higher: 3.01 ± 0.073 for the first, 2.56 ± 0.077 for the second.

Going from AVEQLAGCKIDNVDDIG [YDL088C/ASM4] to AVGNLGNAVTVTEDGTV [RPL22A], the protein stability index falls from 2.86 ± 0.075 to 1.46 ± 0.062.

Compared with AVKKLYAIIINYTKDNE [YCS4], AVSKDPLLTKRKDLRDK [DIS3] is higher in protein stability index: 1.82 ± 0.057 for the first, 2.97 ± 0.14 for the second.

AVSRSMTDIWNTLIPES [ECM29] and AVVFKPFKGEVVDGTVV [RPB7] are within error of each other in protein stability index: 2.94 ± 0.067 for the first, 3.05 ± 0.1 for the second.

Compared with AVVGNNMLLDPAANESE [RRP42], AYEEEEENEDNDGNNRT [NUT1] is higher in protein stability index: 1.47 ± 0.083 for the first, 3.25 ± 0.12 for the second.

Going from AYLLLVQGGNAAPSAAD [RPP2B] to CDGDTVWDKFAVNLLNC [SSN2], the protein stability index rises from 1.84 ± 0.05 to 3.29 ± 0.1.

First: CDKSVCRKCYARLPPRA [RPL40A]
Second: CDLSSKFNKSKAKFTSL [YCS4]
The protein stability index of the first is lower: 2.5 ± 0.078 for the first, 2.72 ± 0.055 for the second.

First: CFSQENIEEMARVILYL [SIN4]
Second: CFVLGIASMSTVRASSL [SMC2]
The protein stability index of the first is higher: 2.47 ± 0.083 for the first, 1.51 ± 0.056 for the second.
